The values below come from publication PMC6525511.

The target of the experiment is RIG-5 (construct not stated; SPR) (C. elegans). Kind of experiment: SPR.

A word on the pKd: it is −log10 of the Kd, conventionally taken in molar units.

pKd: −log10 of the molar value.

As to “ZIG-8 (purified; construct not stated; SV-AUC and SPR) (from UniProt G5ED00 22-251) (natural protein)”, the pKd is 5.00.
